Source: patent US20200031952A1 (CLOSED JOINT STOCK COMPANY BIOCAD, published 2020)
Values belong to the molecule of their own block, whether it stands above or below them.

Assays:
human IL-17A [1] = target: T1, human IL-17A (human, UniProt Q16552 24-155, limits assumed); experiment: cell-based or functional assay
T1 construct: Used as analyte in the Octet tests, as immobilised antigen in ELISA and as cytokine in the HT1080 cell test; also called human recombinant IL-17A; Interleukin 17

human IL-17A [2] = target: T1, human IL-17A; experiment: BLI (OctetRed 96), BCD109 on AR2G sensors, 1:1 model; analyte 17,1 nM (heading: 'Human ... IL17 Fc'); Full R^2 0,775434
Protocol: (§1) The test was conducted at a temperature of 30° C. and using PBS with 0.1% Tween-20 and 0.1% BSA as a working buffer.
(§2) Binding curves (after subtracting a reference signal) were analyzed using Octet Data Analysis software (Version 7.0) in accordance with the standard procedure and using 1:1 interaction model.

monkey IL-17A [3] = target: T2, monkey IL-17A (monkey); experiment: BLI (OctetRed 96), BCD109 on AR2G sensors, 1:1 model; analyte 68,7 nM (heading: 'Macaque ... IL17 Fc'); Full R^2 0,672159
T2 chain: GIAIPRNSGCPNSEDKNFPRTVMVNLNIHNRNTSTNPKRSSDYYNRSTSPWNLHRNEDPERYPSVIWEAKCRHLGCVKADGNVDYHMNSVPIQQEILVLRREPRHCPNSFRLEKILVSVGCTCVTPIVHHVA
Protocol: as §1, §2

human IL-17A [4] = target: T1, human IL-17A; experiment: BLI (OctetRed 96), BCD109 on AR2G sensors, 1:1 model; analyte 34,3 nM (heading: 'Human ... IL17 Fc'); Full R^2 0,744563
Protocol: as §1, §2

monkey IL-17A [5] = target: T2, monkey IL-17A; experiment: BLI (OctetRed 96), BCD109 on AR2G sensors, 1:1 model; analyte 34,4 nM (heading: 'Macaque ... IL17 Fc'); Full R^2 0,061979
Protocol: as §1, §2

monkey IL-17A [6] = target: T2, monkey IL-17A; experiment: BLI (OctetRed 96), BCD109 on AR2G sensors, 1:1 model; analyte 17,2 nM (heading: 'Macaque ... IL17 Fc'); Full R^2 0,753773
Protocol: as §1, §2

rat IL-17A = target: T3, rat IL-17A (rat, UniProt Q61453 18-150, limits assumed); experiment: BLI (OctetRed 96), BCD109 immobilised on AR2G sensors, IL-17A as analyte
T3 sequence (looked up): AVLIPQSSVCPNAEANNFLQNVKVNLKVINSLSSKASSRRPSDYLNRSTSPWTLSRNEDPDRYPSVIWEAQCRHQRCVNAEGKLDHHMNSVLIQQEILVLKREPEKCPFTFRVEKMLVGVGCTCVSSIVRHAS
Protocol: as §1, §2

human IL-17A [7] = target: T1, human IL-17A; experiment: BLI (OctetRed 96), BCD109 on AR2G sensors, 1:1 model; analyte 68,6 nM (heading: 'Human ... IL17 Fc'); Full R^2 0,383582
Protocol: as §1, §2

IC50, picomole as defined by the cell IL6 test (human IL-17A [1]): 1100 picomole
Molecule: AIN457 (anti-IL-17A antibody by Novartis)

Kd (human IL-17A [2]): 4.4 pM
Kd (monkey IL-17A [3]): < 1 pM
Kd (human IL-17A [4]): < 1 pM
Kd (monkey IL-17A [5]): < 1 pM
Kd (monkey IL-17A [6]): < 1 pM
Kd (human IL-17A [7]): < 1 pM
B1: BCD109 (antibody, V domains shown)
VH: QVQLVQSGGGLVQAGGSLRLSCAASGGTFATSPMGWLRQAPGKGTEFVAAISPSGGDRIYADSVKGRFTISRDNAGYFIYLQMNSLKPEDTAVYYCAVRRRFDGTSYYTGDYDSWGQGTLVTVSS
VL: EIVLTQSPGTLSLSPGERATLSCRASQSVSSSYLAWYQQKPGQAPRLLIYDASSRATGIPDRFSGSGSGTDFTLTISRLEPEDFAVYYCQQYSYSPVTFGQGTKVEIKR
notes: IgG1, transiently expressed; also called BCD109 antibody; BCD109 candidate; copies: 2 + 2
binding result (rat IL-17A): no binding (tested: 126 nM to 2 nM titrated)
